Measurements: patent publication US20110129470A1 (BOARD OF TRUSTEES OF THE UNIVERSITY OF ILLNOIS, published 2011)

Biological target: the molecule itself
Test: X-ray crystal structure of human dCK
Source text: Crystals were transferred to a cryoprotectant solution that in the case of the citrate condition was made of mineral oil (Sigma) while for the crystals grown in PEG it was composed of the mother liquor and 10% (w/v) xylitol-10% (w/v) sucrose. Once the crystals were mounted in loops, they were frozen by directly immersing them in liquid nitrogen. X-ray data were collected at the Advanced Photon Source using the BioCARS beamlines BM-C and BM-D, and the SERCAT beamline ID-22.
Data for the MAD data set were collected to 2.3 Å resolution. A partially built model into the MAD electron density was used to solve the tetragonal crystals. The electron density for dCK extended to the last residue (Leu260), while the N-terminus (residues 1 to 19) was flexible and could not be modeled. […] The ligands were refined without conformational torsion-angle restraints in order to prevent bias towards a particular ring conformation for the sugars.

B1: Human deoxycytidine kinase (dCK), wild type (enzyme)
chain: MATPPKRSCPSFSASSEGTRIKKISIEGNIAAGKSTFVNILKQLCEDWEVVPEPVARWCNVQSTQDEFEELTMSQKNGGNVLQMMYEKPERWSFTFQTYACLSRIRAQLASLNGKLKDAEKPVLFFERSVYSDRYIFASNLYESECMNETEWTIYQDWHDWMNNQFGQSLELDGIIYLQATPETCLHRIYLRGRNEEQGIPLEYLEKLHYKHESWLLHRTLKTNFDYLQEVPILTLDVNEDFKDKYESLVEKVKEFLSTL
modifications: selenomethionine-substituted protein was used for the MAD phasing data set
notes: Recombinant protein from E. coli; the His-tag was cleaved by thrombin before crystallisation; Residues 1 to 19 were flexible and not modelled; It is a homodimer in the crystal structure; also called human dCK; WT dCK
B1: binds.
